Measurements as given in paper PMC3315798 (Molecular Biology of the Cell, 2012).

B1: GST-Cdc42p (Q61L, D122A) (natural protein)
chain: not shown
B2: GST-Cdc42p (V36M, Q61L) (natural protein)
chain: not shown
B3: GST-Cdc42p-Q61L (GTP-locked mutant) (natural protein)
chain: not shown

Target: T1, Fus2p-FLAG (full-length Fus2p, internally FLAG-epitope tagged at residue 104) (S. cerevisiae, UniProt Q05670 1-677)
T1 sequence (looked up): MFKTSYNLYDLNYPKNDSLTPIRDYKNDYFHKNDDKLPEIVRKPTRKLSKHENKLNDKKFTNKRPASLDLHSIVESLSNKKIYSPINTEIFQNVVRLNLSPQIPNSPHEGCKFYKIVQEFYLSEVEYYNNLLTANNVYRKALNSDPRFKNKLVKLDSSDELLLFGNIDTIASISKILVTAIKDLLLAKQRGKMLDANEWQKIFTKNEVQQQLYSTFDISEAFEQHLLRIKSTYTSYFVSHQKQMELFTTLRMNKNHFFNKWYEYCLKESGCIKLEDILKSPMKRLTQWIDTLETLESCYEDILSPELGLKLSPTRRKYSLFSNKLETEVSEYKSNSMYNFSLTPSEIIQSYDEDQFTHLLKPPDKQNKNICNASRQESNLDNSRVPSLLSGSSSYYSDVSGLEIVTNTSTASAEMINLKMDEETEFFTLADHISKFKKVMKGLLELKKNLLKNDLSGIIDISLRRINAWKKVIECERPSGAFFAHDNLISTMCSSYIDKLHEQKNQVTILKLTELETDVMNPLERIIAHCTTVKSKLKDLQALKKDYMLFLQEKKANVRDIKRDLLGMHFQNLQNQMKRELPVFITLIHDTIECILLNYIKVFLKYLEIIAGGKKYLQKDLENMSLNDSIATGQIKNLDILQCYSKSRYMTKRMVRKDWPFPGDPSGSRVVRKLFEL
Test: co-IP

Binder | % binding relative to wild-type Cdc42p (so in the source) [%] | fold level bound compared with Cdc42p-T17N or wild type [fold]
B1 | 4 | 
B2 | 7 | 
B3 |  | ~20
